US20250230235A1 (NOVELTY NOBILITY, published 2025)

Molecular target: human c-Kit (wild type) on the cell surface of LAD2 cells (human, UniProt P10721 26-976)
Experiment: cell-based or functional assay

Chain of human c-Kit (wild type) on the cell surface of LAD2 cells (P10721 26-976): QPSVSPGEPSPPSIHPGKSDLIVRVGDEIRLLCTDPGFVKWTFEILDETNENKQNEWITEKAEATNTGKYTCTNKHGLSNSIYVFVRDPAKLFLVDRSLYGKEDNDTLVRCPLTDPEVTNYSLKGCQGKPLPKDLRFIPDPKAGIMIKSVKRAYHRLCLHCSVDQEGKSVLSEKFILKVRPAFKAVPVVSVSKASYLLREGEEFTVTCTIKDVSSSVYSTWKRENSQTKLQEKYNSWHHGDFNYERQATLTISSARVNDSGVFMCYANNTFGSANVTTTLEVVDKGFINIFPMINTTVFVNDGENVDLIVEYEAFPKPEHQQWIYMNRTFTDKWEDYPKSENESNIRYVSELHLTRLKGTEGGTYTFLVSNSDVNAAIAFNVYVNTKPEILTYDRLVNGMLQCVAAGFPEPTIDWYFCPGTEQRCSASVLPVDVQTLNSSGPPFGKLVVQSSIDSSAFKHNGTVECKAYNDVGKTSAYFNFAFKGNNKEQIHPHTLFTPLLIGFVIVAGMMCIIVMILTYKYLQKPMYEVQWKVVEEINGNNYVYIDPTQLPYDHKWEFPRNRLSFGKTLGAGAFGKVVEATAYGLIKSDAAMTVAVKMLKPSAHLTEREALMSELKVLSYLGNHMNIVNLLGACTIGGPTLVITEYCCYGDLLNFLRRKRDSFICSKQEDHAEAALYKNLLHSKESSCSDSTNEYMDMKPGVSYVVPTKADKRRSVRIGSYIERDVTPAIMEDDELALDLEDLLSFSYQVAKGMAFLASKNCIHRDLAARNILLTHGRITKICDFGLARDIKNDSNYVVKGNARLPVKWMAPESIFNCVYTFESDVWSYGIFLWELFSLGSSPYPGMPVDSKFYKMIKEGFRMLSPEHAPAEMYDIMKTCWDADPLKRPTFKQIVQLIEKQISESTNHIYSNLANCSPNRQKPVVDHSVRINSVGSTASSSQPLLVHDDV

half-maximal inhibitory concentration (IC50) of SCF-mediated proliferation of LAD2 cells: 0.058 µg/mL
B1: 2G4 antibody (antibody, human IgG1, kappa, V domains shown)
VH: QVQLVESGGGVVQPGRSLRLSCAASGFTFSRYGMHWVRQAPGKGLEWVAVIWYDGTNKDYTDSVRGRFTISRDNSKNTLYLQMNSLRAEDTAVYYCAREDWAEAFDMWGQGTTVTVSS
VL: not shown
IC50 of degranulation (β-hexosaminidase release) increased by SCF and streptavidin in IgE-sensitized LAD2 cells: 0.00636 µg/mL
